Laboratory results from patent US20260137799A1, “ANTI-MUC1* ANTIBODY DRUG COMPLEXES AND USES THEREOF” (Minerva Biotechnologies Corporation, priority 2023, published 2026).

Columns and labels:
[1] = target: MUC1*45 (UniProt P15941 1110-1255); assay: cell-based or functional assay
[2] = system: T47D; assay: xCELLigence impedance cytotoxicity, T47D; assay type: cell-based, human; details: Example 9 (FIGS. 35-36); average over batches for DXd ADCs; read-out: IC50 for killing of breast cancer T47D-wt cells
In short: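 Adherent target cells plated at 5000/well on electrode plates were grown 24 h, then exposed to serially diluted ADCs in growth medium at 37° C/5% CO2. Killing was followed as real-time impedance loss over 40-120 h, normalized to 1% triton or 1 μM Taxol as 100% kill.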

[3] = system: T47D-MUC1*; assay: xCELLigence impedance cytotoxicity, T47D-MUC1*; assay type: cell-based, human; details: Example 9 (FIGS. 35-36); read-out: IC50, T47D cells engineered to express more MUC1*45
Protocol: (§1) An xCELLigence RTCA MP Instrument (Agilent) was used to assess real-time killing of target cancer cells). In the xCELLigence system, target cancer cells, which are adherent, are plated onto electrode array 96-well plates. Adherent cells insulate the electrode and increase the impedance. The number of adherent cancer cells is directly proportional to impedance. […] Therefore, increasing impedance reflects the growth of the cancer cells and decreasing impedance reflects the killing of the cancer cells.
(§2) Target Cancer cells (Table 9) were seeded onto a multi-electrode well plate at a density of 5000 cells/well (100 μL of a 50,000 cells/mL stock) and incubated for 24 hr in a 37° C./5% CO2 incubator. ADCs were prepared as a 2× solution in corresponding growth media and 100 μL of each concentration was added to target cells. As a positive control (100% cell killing) cells were treated with either 1% triton or 1 μM Taxol instead of ADC. After 40-120 hours incubation in a 37° C./5% CO2 incubator cell killing was assessed. In this assay, impedance is measured in real-time. When the adherent cancer cells are killed and come off the electrode surface, impedance (insulation) decreases.

[4] = system: NCI-H1975; assay: xCELLigence impedance cytotoxicity, NCI-H1975; assay type: cell-based, human; details: Example 9 (FIGS. 35-36); read-out: IC50 for killing of H1975-wt cells
Protocol: as §1, §2

[5] = system: CFPAC1-wt pancreatic cancer cell line; assay: xCELLigence impedance cytotoxicity, CFPAC1; assay type: cell-based, human; details: Example 9 (FIGS. 35-36); read-out: IC50, CFPAC1-wt pancreatic cancer cells
Protocol: as §1, §2
(§3) To directly compare the C2 and 3C2B1 anti-MUC1* antibodies as ADC targeting domains, a panel of MUC1* positive cancer cell lines representing different cancer types were treated with C2-deruxtecan versus 3C2B1-deruxtecan (FIG. 35) or C2-MC-VA-PAB-exatecan versus 3C2B1-MC-VA-PAB-exatecan (FIG. 36). In some cases, the cancer cells were engineered to express high levels of MUC1*45.

[6] = system: H2110-wt lung cancer cell line; assay: xCELLigence impedance cytotoxicity, H2110; assay type: cell-based, human; details: Example 9 (FIGS. 35-36); read-out: IC50, lung cancer H2110-wt cells
Protocol: as §1, §2, §3

[7] = system: breast cancer, pancreatic cancer, and lung cancer cell lines; assay: Cytotoxicity of ADCs with additional linkers and toxins (FIGS. 30-31); assay type: cell-based; details: breast cancer, pancreatic cancer, and lung cancer cells
Protocol: FIG. 30 is a table showing cytotoxicity of the indicated MUC1* ADCs against indicated cancer cells. IC50 values were determined from xCELLigence data. FIG. 30 discloses “GGFG” as SEQ ID NO: 160, “GGGG” as SEQ ID NO: 161, “GGVA” as SEQ ID NO: 162, “GGVG” as SEQ ID NO: 163.
FIG. 31 is a table showing cytotoxicity of the indicated MUC1* ADCs against indicated cancer cells. IC50 values were determined from PrestoBlue data.
An anti-MUC1* antibody was conjugated to several toxins via a number of different linkers (compounds VIII-XXII).

[8] = system: MUC1* negative HEK-293-TN cells; assay: Bystander killing of non-target cells; assay type: cell-based
Protocol: The cell population was doped with H1975-MUC1*45-GFP cells as indicated. FIGS. 31A1-31A20 show the effect of C2-MC-GGFG-AM-DXd (SEQ ID NO: 160) on the non-target cells. […] FIGS. 31C1-31C20 show the effect of C2-MC-VA-PAB-exatecan on the non-target cells.
FIGS. 33A-33H show graphs of the integrated pixel density of non-target cancer cells as a function of doping cell population with cells expressing high amounts of MUC1*45. FIGS. 33A-33D show the effect when the cells were treated with C2-MC-GGFG-AM-DXd (SEQ ID NO: 160). FIGS. 33E-33H show the effect when the cells were treated with C2-MC-VA-PAB-exatecan.
In another experiment, we investigated the killing of off-target cells (MUC1* negative HEK-293-TN cells) as well as low antigen expressing target cells (H1975 lung cancer) due to a “bystander” effect (FIGS. 32A1-32D20, FIGS. 33A-33H and FIGS. 34A-34H). To assess the killing of non-target cells adjacent to cells with high MUC1* expression, we doped non-target cells expressing an mCherry marker with varying percentages of target cells that express GFP. 56 nM C2-MC-VA-PAB-exatecan killed nearly all the neighboring non-target cells when the cell population was doped with 30% of the high antigen expressing target cells (FIG. 32C17). […]

[9] = system: low MUC1* expressing, mCherry H1975 lung cancer cells; assay: Bystander killing of low antigen expressing cancer cells; assay type: cell-based, human; details: 56 nM ADC; population contained 30% high MUC1* expressing H1975-MUC1*-GFP cells

B1: C2-MC-VA-PAB-exatecan (antibody, mouse IgG1, kappa)
VH: EVQLEESGGGLVKPGGSLKLSCAASGFTFSGYAMSWVRQTPEKRLEWVATISSGGTYIYYPDSVKGRFTISRDNAKNTLYLQMSSLRSEDTAMYYCARLGGDNYYEYFDVWGAGTTVTVSSAKTTPPSVYAKTTPPSVYPLAPGSAAQTNSMVTLGCLVKGYFPEPVTVTWNSGSLSSGVHTFPAVLQSDLYTLSSSVTVPSSTWPSETVTCNVAHPASSTKVDKKIVPRDCGCKPCICTVPEVSSVFIFPPKPKDVLTITLTPKVTCVVVDISKDDPEVQFSWFVDDVEVHTAQTQPREEQFNSTFRSVSELPIMHQDWLNGKEFKCRVNSAAFPAPIEKTISKTKGRPKAPQVYTIPPPKEQMAKDKVSLTCMITDFFPEDITVEWQWNGQPAENYKNTQPIMDTDGSYFVYSKLNVQKSNWEAGNTFTCSVLHEGLHNHHTEKSLSHSPGK
VL: DIVITQSTASLGVSLGQRATISCRASKSVSTSGYSYMHWYQQRPGQPPKLLIYLASNLESGVPARFSGSGSGTDFTLNIHPVEEEDAATYYCQHSRELPFTFGGGTKLEIKRADAAPTVSADAAPTVSIFPPSSEQLTSGGASVVCFLNNFYPKDINVKWKIDGSERQNGVLNSWTDQDSKDSTYSMSSTLTLTKDEYERHNSYTCEATHKTSTSPIVKSFNRNEC
modifications: MC-VA-PAB-exatecan on reduced cysteine thiols of the antibody, sites not stated; MC-VA-PAB-exatecan on reduced cysteine thiols of the antibody, sites not stated; DAR 5.1
IC50, killing of H1975 cells engineered to express MUC1*45 (xCELLigence) [1]: 9 nM | IC50 [2]: 44 nM | IC50 [3]: 4 nM | IC50 [4]: 117 nM | IC50 [5]: 51 nM | IC50 [6]: 60 nM | activity compared to deruxtecan ADC [7]: enhanced activity | killing of neighboring non-target cells ([8]; 56 nM ADC, population doped with 30% H1975-MUC1*45-GFP target cells, 120 hours): nearly all | non-specific cytotoxicity ([8]; pure populations of non-target HEK-293-TN cells): limited amount of non-specific cytotoxicity | low MUC1* expressing cancer cells killed [9]: about 75%
